Laboratory results taken from FireProtDB (doi:10.1016/j.bpc.2020.106337).

B1: non-specific serine/threonine protein kinase, O49003 (parent)
chain: MASKGAGGGGGGHEEPQRPKQQLPRDSRGSLEVFNPSSSSAAVEPPSAFRPAARSASPFIEEATGGIEDVGKATQRAAEWGLVLQTNEQTGRPQGVSARSSGGGGSARSSSDDKAVAGAIPRVSEELRAALSAFQQTFVVSDASRPGHPIMYASAGFFNMTGYTSKEVVGRNCRFLQGSGTDPAEIAKIRQALANGSNYCGRVLNYKKDGTAFWNLLTIAPIKDEEGRVLKFIGMQVEVSKYTEGNKDTVVRPNGLPESLIKYDARQKDQARSSVSELLLAIKNPRSLSESTNSTFKRKSQESVGALTGDRPGKRSSESGSRRNSKSGARTSLQKISEVPERGSKSRKSGLYSLMSLLGMGPGNIEKDMLKPRDEDPLLDSDDERPESFDDELRRKEMRRGIDLATTLERIEKNFVITDPRLPDNPIIFASDSFLQLTEYSREEILGRNCRFLQGPETDRATVRKIRDAIDNQTEVTVQLINYTKSGKKFWNLFHLQPMRDQKGDVQYFIGVQLDGTEHVRDAAEREGVMLIKKTAENIDEAAKELPDANLRPEDLWANHSKVVLPKPHMKDSASWRAIQKVLEGGENIDLKHFRPVKPLGSGDTGSVHLVELLNTGEYFAMKAMDKNVMLNRNKVHRANAEREILDMLDHPFLPTLYASFQTKTHICLITDYYPGGELFLLLDRQPLKVLREDAVRFYAAEVVIALEYLHCQGIIYRDLKPENILLHRDGHISLTDFDLSCLTSCRPQVFLPEEANKKSRRKSRSSPIFFAEPMRASNSFVGTEEYIAPEIITGAGHTSAVDWWALGILLYEMLYGYTPFRGKTRQRTFANILHKDIRFPASISVSLPARQLIYRLLHRDPSNRLGSYEGSNEIKEHPFFRGINWALVRGTAPPKLDAPLFPDDTDKGMGDAAAADTHTDMF

Variants of: B1
Settings: Avena sativa; pH 4; Thermal; CD; Sodium acetate; transition: 2; reversible: partially reversible; structure 2V0U; whole UniProt chain shown

**Q.** Which results are given for C450A?
**A.** Tm: 51 °C; change of melting temperature, mutant - wild type (higher = more stable): 0.7 °C

Same assay, conditions: Avena sativa; pH 4; Thermal; DSC; Sodium acetate; transition: 2; reversible: partially reversible; structure 2V0U; whole UniProt chain shown

**Q.** With C450A as the variant, how does the Tm read?
**A.** 50.7 °C

**Q.** And the “change of melting temperature, mutant - wild type (higher = more stable)” value (from here on “change of melting temperature, mutant”)?
**A.** 2.7 °C

Same assay, conditions: Avena sativa; pH 4; Thermal; fluorescence; Sodium acetate; transition: 2; reversible: partially reversible; structure 2V0U; whole UniProt chain shown

**Q.** For C450A, which Tm is on record?
**A.** 49.9 °C

**Q.** What about the “change of melting temperature, mutant” value of the same variant?
**A.** 2.8 °C

Same assay, conditions: Avena sativa; pH 7; 20 °C; Urea; fluorescence; sodium phosphate; transition: 2; reversible: no; structure 2V0U; whole UniProt chain shown

**Q.** Which results are given for C450A?
**A.** ddG of mutation (higher = less stable): -0.48 kcal/mol; denaturant m value: 1.67 kcal/mol/M; denaturant midpoint (higher = more stable): 3.39 M; unfolding free energy: 6.07 kcal/mol

Same assay, conditions: Avena sativa; pH 7; Thermal; CD; sodium phosphate; transition: 2; reversible: partially reversible; structure 2V0U; whole UniProt chain shown

**Q.** Which results are given for C450A?
**A.** Tm: 64.4 °C; change of melting temperature, mutant - wild type (higher = more stable): 3.3 °C

Same assay, conditions: Avena sativa; pH 7; Thermal; DSC; sodium phosphate; transition: 2; reversible: partially reversible; structure 2V0U; whole UniProt chain shown

**Q.** Which Tm does the source give for C450A here?
**A.** 65 °C

**Q.** And the “change of melting temperature, mutant” value?
**A.** 3.1 °C

Same assay, conditions: Avena sativa; pH 7; Thermal; fluorescence; sodium phosphate; transition: 2; reversible: partially reversible; structure 2V0U; whole UniProt chain shown

**Q.** Which results are given for C450A?
**A.** Tm: 63.6 °C; change of melting temperature, mutant - wild type (higher = more stable): 3.8 °C

Same assay, conditions: Avena sativa; pH 8; Thermal; CD; sodium phosphate; transition: 2; reversible: partially reversible; structure 2V0U; whole UniProt chain shown

**Q.** For C450A, which Tm is on record?
**A.** 64.4 °C

**Q.** What about the “change of melting temperature, mutant” value of the same variant?
**A.** 2.6 °C

Same assay, conditions: Avena sativa; pH 8; Thermal; DSC; sodium phosphate; transition: 2; reversible: partially reversible; structure 2V0U; whole UniProt chain shown

**Q.** With C450A as the variant, how does the Tm read?
**A.** 63.8 °C

**Q.** And the “change of melting temperature, mutant” value?
**A.** 3.7 °C

Same assay, conditions: Avena sativa; pH 8; Thermal; fluorescence; sodium phosphate; transition: 2; reversible: partially reversible; structure 2V0U; whole UniProt chain shown

**Q.** Which Tm does the source give for C450A here?
**A.** 63.5 °C

**Q.** What about the “change of melting temperature, mutant” value of the same variant?
**A.** 3.4 °C

Same assay, conditions: Avena sativa; pH 9; Thermal; DSC; glycine; transition: 2; reversible: partially reversible; structure 2V0U; whole UniProt chain shown

**Q.** Which Tm does the source give for C450A here?
**A.** 66 °C

**Q.** And the “change of melting temperature, mutant” value?
**A.** 4.2 °C

Same assay, conditions: Avena sativa; pH 9; Thermal; fluorescence; glycine; transition: 2; reversible: partially reversible; structure 2V0U; whole UniProt chain shown

**Q.** With C450A as the variant, how does the Tm read?
**A.** 63.5 °C

**Q.** And the “change of melting temperature, mutant” value?
**A.** 2.6 °C
